Where two headings read alike, the source gives them in different places.
Legend:
[1] = molecular target: noumeavirus NMV_189 (noumeavirus)
[2] = molecular target: noumeavirus NMV_189 (noumeavirus); assay: crystal structure
[3] = molecular target: zamilon vitis Zav_19 (zamilon vitis virophage)
[4] = molecular target: zamilon vitis Zav_19 (zamilon vitis virophage); assay: crystal structure

noumeavirus NMV_189 (natural protein)
stoichiometry N [1]: 3 | stoichiometry N [2]: 3

zamilon vitis Zav_19 (natural protein)
stoichiometry N [3]: 3 | stoichiometry N [4]: 3

— paper doi:10.1101/2023.01.23.525297
